In one series the target is T1, ULP1 SUMO protease (Saccharomyces cerevisiae, UniProt Q02724).
T1 construct: treatment with the yeast ULP1 protein (SUMO protease catalytic domain)
T1 sequence (Q02724 432-621 limits assumed): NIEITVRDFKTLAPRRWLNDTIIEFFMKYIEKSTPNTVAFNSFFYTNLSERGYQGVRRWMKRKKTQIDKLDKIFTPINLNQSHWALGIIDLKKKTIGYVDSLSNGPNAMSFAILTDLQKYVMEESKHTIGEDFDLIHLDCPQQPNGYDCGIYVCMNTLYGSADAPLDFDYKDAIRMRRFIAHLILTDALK
The series is described as follows: In vitro GPATase activity assay (coupled GDH assay) of fusion -/+ Ulp1. The format is biochemical, yeast. The text has this: GPATase, a glutaminase enzyme, hydrolizes 5-phospho ribosyl pyrophosphate (PRPP) […], 5-phosphoribosyl-(b)1-amine (PRA) and pyrophosphate (PPi). This glutaminase reaction was monitored by measuring the production of glutamate by means of a coupled glutamate dehydrogenase (GDH) assay under standard reaction conditions described by Messenger and Zalkin (1979).
[…]
The coupled GDH assay employed to assess GPATase activity was examined for accuracy. Increasing amounts of the purified SUMO-GPATase fusion protein, either untreated or cleaved by the ULP1 SUMO protease, were incubated in the presence of glutamine and PRPP for a fixed period of time, and the completed reaction was then used as substrate in a GDH assay. […] This is particularly so at enzyme concentrations of 1 μg or less. Thus, the amount of NAD^+ reduced in the GDH reaction directly correlates with the amount of active GPATase enzyme in the initial reaction. In addition, treatment with ULP1 results in at least a 10-fold increase in the glutaminase activity of GPATase, despite the fact that only partial cleavage of SUMO-GPATase has been observed thus far.

Series [1] deals with T2, yeast ULP1 protein (SUMO protease catalytic domain) (Saccharomyces cerevisiae, UniProt Q02724).
T2 construct: treatment with the yeast ULP1 protein (SUMO protease catalytic domain)
T2 sequence (Q02724 432-621 limits assumed): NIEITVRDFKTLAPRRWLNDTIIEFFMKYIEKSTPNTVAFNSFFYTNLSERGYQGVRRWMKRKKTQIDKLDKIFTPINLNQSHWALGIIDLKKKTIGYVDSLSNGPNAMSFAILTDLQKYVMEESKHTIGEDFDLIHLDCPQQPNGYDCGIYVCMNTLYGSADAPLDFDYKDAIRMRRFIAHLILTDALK
The series is described as follows: Cleavage of SUMO-GPATase by yeast ULP1 (SDS-PAGE). Type of series: biochemical. As to conditions: 3 hours. On the procedure: The SUMO protein was cleaved from a SUMO-GPATase fusion protein by treatment with the yeast ULP1 protein (SUMO protease catalytic domain). Approximately 5 μg SUMO-GPATase were incubated at 30° C. for 3 hours with increasing concentrations of the ULP1 enzyme in a reaction mixture containing 50 mM Tris-HCl pH 7.5, 1 mM EDTA, 10 mM DTT. The reaction was quenched by addition of SDS-PAGE sample buffer, heated, and loaded directly on a 12% SDS-polyacrylamide gel, and electrophoresed. After electrophoresis, the gel was stained to visualize the proteins. […] This inability of the ULP1 enzyme to cut the fusion protein may reflect the occurrence of steric hindrance around the cleavage site, or some partial modification of the junction sequence, e.g. oxidation of the Cysteine residue at the amino-terminal end of GPATase.

Here are results for one molecule from patent US7842460B2, “Method for assessing proteolytic enzyme activity using ubiquitin fusion substrate” (Progenra Inc., priority 2004, dated 2010).

B1: SUMO-GPATase: Fusion of SUMO (Smt3) C-terminal Gly-Gly to mature E. coli glutamine phosphoribosylpyrophosphate amidotransferase N-terminus (protein)
chain: CGIVGIAGVMPVNQSIYDALTVLQHRGQDAAGIITIDANNCFRLRKANGLVSDVFEARHMQRLQGNMGIGHVRYPTAGSSSASEAQPFYVNSPYGITLAHNGNLTNAHELRKKLFEEKRRHINTTSDSEILLNIFASELDNFRHYPLEADNIFAAIAATNRLIRGAYACVAMIIGHGMVAFRDPNGIRPLVLGKRDIDENRTEYMVASESVALDTLGFDFLRDVAPGEAIYITEEGQLFTRQCADNPVSNPCLFEYVYFARPDSFIDKISVYSARVNMGTKLGEKIAREWEDLDIDVVIPIPETSCDIALEIARILGKPYRQGFVKNRYVGRTFIMPGQQLRRKSVRRKLNANRAEFRDKNVLLVDDSIVRGTTSEQIIEMAREAGAKKVYLASAAPEIRFPNVYGIDMPSATELIAHGREVDEIRQIIGADGLIFQDLNDLIDAVRAENPDIQQFECSVFNGVYVTKDVDQGYLDFLDTLRNDDAKAVQRQNEVENLEMHNEG
modifications: left off: large carriers
notes: Fusion of SUMO (Smt3) C-terminal Gly-Gly to mature E. coli glutamine phosphoribosylpyrophosphate amidotransferase N-terminus
As for B1, the “increase in the glutaminase activity of GPATase on treatment with ULP1” value with ULP1 SUMO protease (ULP1-cleaved vs untreated fusion, only partial cleavage) is reported as at least 10 fold. The entries for the “absorbance at OD 363 in GDH assay (GPATase activity)” value with ULP1 SUMO protease (absence of Ulp1) and with ULP1 SUMO protease (fusion incubated 30 minutes with Ulp1) were “this increase of absorbance did not occur” and “an increase is absorbance”, respectively. Further, the “amount of Ulp1 at which cleavage of the fusion was demonstrated” value in series [1] (approx. 5 μg SUMO-GPATase, 30° C.) is listed as 0.009 units. Also, in series [1] (with as much as 78.3 Units Ulp1, 30° C.), the completeness of cleavage entry is reported as “cleavage was never fully achieved”.
